# Reference: US9365620B2, “Methods for treating pain” (NoNO NC., priority 2008, dated 2016)
# Molecular target: N-type calcium channels (Mus musculus, UniProt O55017)
# Format: cell-based, Swiss mice
# Conditions: Tat-NR2B9c 100 μM, conotoxin 1 μM, FIG. 5A
sequence,measurement,value
YGRKKRRQRRRKLSSIESDV [Tat-NR2B9c] (Synthetic peptide Tat-NR2B9c) [chimeric peptide of a standard tat peptide and …],additional inhibition of Ca^2+ current once N-channels are blocked by Omega conotoxin,no additional inhibition
